For assay [1], the target named is HPV E6 #35 (cysteine-free) (HPV strain 35). Kind of assay: G assay titration, PDZ 0.5 ug/ml.
Assay [2] has as its target HPV E6 #66 (cysteine-free) (HPV strain 66). Kind of assay: G assay titration, PDZ 0.5 ug/ml.
Assay [3] concerns the target HPV E6 #35 (cysteine-free) (HPV strain 35). Kind of assay: G assay titration, PDZ 5 ug/ml.
For assay [4], the target named is T1, HPV E6 58 (modified) (HPV strain 58).
T1 construct: also called AA75.1
Kind of assay: G assay titration, PDZ 5 ug/ml.

The target in assay [5] is HPV E6 #57 (cysteine-free) (HPV strain 57). Kind of assay: G' assay; Classification 0 = A450 nm 0, not found to interact.
Assay [6] has as its target T2, HPV E6 77 (modified) (HPV strain 77).
T2 construct: also called AA78.1
The assay is described as above.

Assay [7] deals with T3, HPV E6 33 (modified) (HPV strain 33).
T3 construct: also called AA72.1
Kind of assay: G assay titration, PDZ 0.5 ug/ml.

The target in assay [8] is HPV E6 #66 (cysteine-free) (HPV strain 66). Kind of assay: G assay titration, PDZ 1 ug/ml.
The target in assay [9] is T1, HPV E6 58 (modified). Kind of assay: G assay titration, PDZ 0.5 ug/ml.
Assay [10] has as its target T1, HPV E6 58 (modified). Kind of assay: G assay titration, PDZ 3 ug/ml.
Assay [11] addresses HPV E6 #66 (cysteine-free) (HPV strain 66). Kind of assay: G assay titration, PDZ 5 ug/ml.

B1: GST-DLG2 PDZ domain 2 (other, not shown: a dimerising Fc or GST)
chain: ISVVEIKLFKGPKGLGFSIAGGVGNQHIPGDNSIYVTKIIDGGAAQKDGRLQVGDRLLMVNNYSLEEVTHEEAVAILKNTSEVVYLKVGNPTTI
By Kd is commonly meant the free concentration of one partner at which half of the binding sites on the other are occupied at equilibrium, for simple one-to-one binding. Higher therefore signals lower affinity. Molecule B1 gave an equilibrium dissociation constant (Kd) in [1] of 0.2 µM.

B2: GST-NeDLG PDZ domains 1, 2 (other, not shown: a dimerising Fc or GST)
chain: YEEIVLERGNSGLGFSIAGGIDNPHVPDDPGIFITKIIPGGAAAMDGRLGVNDCVLRVNEVDVSEVVHSRAVEALKEAGPVVRLVVRRRQPPPETIMEVNLLKGPKGLGFSIAGGIGNQHIPGDNSIYITKIIEGGAAQKDGRLQIGDRLLAVNNTNLQDVRHEEAVASLKNTSDMVYLKVAKPGSL
notes: domain: PDZ domains 1-2; also called NeDLG 1, 2
For the molecule B2, binding in [2] was characterised by a dissociation constant (Kd) of 1 µM.

B3: GST-KIAA1526 PDZ domain 1 (other, not shown: a dimerising Fc or GST)
chain: PDSAGPGEVRLVSLRRAKAHEGLGFSIRGGSEHGVGIYVSLVEPGSLAEKEGLRVGDQILRVNDKSLARVTHAEAVKALKGSKKLVLSVYSAGRIPGGYVTNH
In turn, B3 showed a Kd in assay [3] of 1 µM.

B4: GST-NeDLG PDZ domain 3 (other, not shown: a dimerising Fc or GST)
chain: ILLHKGSTGLGFNIVGGEDGEGIFVSFILAGGPADLSGELRRGDRILSVNGVNLRNATHEQAAAALKRAGQSVTIVAQYRPEEYSRFESKIHDLREQMMNSSMSSGSGSLRTSEKRSLE
Molecule B4 returned a dissociation constant (Kd) in assay [4] of 5 µM.

B5: GST-Atrophin-1 Interacting Protein PDZ domain 2 (other)
chain: LSGATQAELMTLTIVKGAQGFGFTIADSPTGQRVKQILDIQGCPGLCEGDLIVEINQQNVQNLSHTEVVDILKDCPIGSETSLIIHRGGFF
Take B5: the Kd in [3] is 0.8 µM.

B6: GST-BAI-1 Associated Protein PDZ domain 2 (other, not shown: a dimerising Fc or GST)
chain: PSELKGKFIHTKLRKSSRGFGFTVVGGDEPDEFLQIKSLVLDGPAALDGKMETGDVIVSVNDTCVLGHTHAQVVKIFQSIPIGASVDLELCRGYPLPFDPDDPN
notes: also called BAI-1 (2/6)
In assay [2], B6 registered a dissociation constant (Kd) of 3 µM. Besides, the binding result in assay [5] and in assay [6] was “no binding (tested: 10 uM peptide)” throughout.

B7: GST-KIAA1095 PDZ domain 1 (other, not shown: a dimerising Fc or GST)
chain: QGEETKSLTLVLHRDSGSLGFNIIGGRPSVDNHDGSSSEGIFVSKIVDSGPAAKEGGLQIHDRIIEVNGRDLSRATHDQAVEAFKTAKEPIVVQVLRRTPRTKMFTP
B7 had a Kd in assay [7] of 5 µM.

B8: GST-TIP1 PDZ domain 1 (Table 9 insert) (other, not shown: a dimerising Fc or GST)
chain: QRVEIHKLRQGENLILGFSIGGGIDQDPSQNPFSEDKTDKGIYVTRVSEGGPAEIAGLQIGDKIMQVNGWDMTMVTHDQARKRLTKRSEEVVRLLVTRQSLQK
notes: also called TIP-1 1/1
B8 displayed a dissociation constant Kd in assay [8] of 5 µM.

B9: GST-Outer Membrane PDZ domain 1 (other, not shown: a dimerising Fc or GST)
chain: LLTEEEINLTRGPSGLGFNIVGGTDQQYVSNDSGIYVSRIKENGAAALDGRLQEGDKILSVNGQDLKNLLHQDAVDLFRNAGYAVSLRVQHRLQVQNGIHS
The molecule B9 yielded a Kd in assay [9] of 5 µM.

B10: GST-DLG1 PDZ domain 2 (other, not shown: a dimerising Fc or GST)
chain: IQLIKGPKGLGFSIAGGVGNQHIPGDNSIYVTKIIEGGAAHKDGKLQIGDKLLAVNNVCLEEVTHEEAVTALKNTSDFVYLKVAKPTSMYMNDGN
In the case of B10, the Kd in [7] was 5 µM.

B11: GST-Atrophin-1 Interacting Protein PDZ domain 1 (other, not shown: a dimerising Fc or GST)
chain: REKPLFTRDASQLKGTFLSTTLKKSNMGFGFTIIGGDEPDEFLQVKSVIPDGPAAQDGKMETGDVIVYINEVCVLGHTHADVVKLFQSVPIGQSVNLVLCRGYP
notes: also called Atrophin-1 Inter; Prot; Atr-P (1/6)
Regarding B11, the dissociation constant (Kd) in [7] turned out to be 5 µM.

B12: GST-MUPP1 PDZ domain 10 (other, not shown: a dimerising Fc or GST)
chain: LPGCETTIEISKGRTGLGLSIVGGSDTLLGAIIIHEVYEEGAACKDGRLWAGDQILEVNGIDLRKATHDEAINVLRQTPQRVRLTLYRDEAPYKE
In [10], B12 had a Kd of 5 µM.

B13: GST-ERBIN PDZ domain 1 (other, not shown: a dimerising Fc or GST)
chain: QGHELAKQEIRVRVEKDPELGFSISGGVGGRGNPFRPDDDGIFVTRVQPEGPASKLLQPGDKIIQANGYSFINIEHGQAVSLLKTFQNTVELIIVREVSS
Molecule B13 returned a dissociation constant Kd in assay [3] of 0.4 µM.

B14: GST-PSD95 PDZ domain 3 (other, not shown: a dimerising Fc or GST)
chain: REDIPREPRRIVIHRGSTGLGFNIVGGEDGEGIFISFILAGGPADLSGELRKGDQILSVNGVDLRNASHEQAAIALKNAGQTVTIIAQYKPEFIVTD
In turn, B14 registered an equilibrium dissociation constant (Kd) in [7] of 5 µM.

B15: GST-KIAA0807(S) PDZ domain 1 (other, not shown: a dimerising Fc or GST)
chain: ISALGSMRPPIIIHRAGKKYGFTLRAIRVYMGDSDVYTVHHMVWHVEDGGPASEAGLRQGDLITHVNGEPVHGLVHTEVVELILKSGNKVAISTTPLENSS
Take B15: the Kd in assay [11] is 5 µM; in [1] it was 0.1 µM.

B16: GST-NeDLG PDZ domain 2 (other, not shown: a dimerising Fc or GST)
chain: ITLLKGPKGLGFSIAGGIGNQHIPGDNSIYITKIIEGGAAQKDGRLQIGDRLLAVNNTNLQDVRHEEAVASLKNTSDMVYLKVAKPGSLE
Take B16: binding in [2] was characterised by a dissociation constant (Kd) of 3.5 µM.

B17: GST-FLJ00011 PDZ domain 1 (other, not shown: a dimerising Fc or GST)
chain: KNPSGELKTVTLSKMKQSLGISISGGIESKVQPMVKIEKIFPGGAAFLSGALQAGFELVAVDGENLEQVTHQRAVDTIRRAYRNKAREPMELVVRVPGPSPRPSPSD
In turn, B17 had a dissociation constant Kd in assay [3] of 0.35 µM.

B18: GST-KIAA0147 PDZ domain 3 (other, not shown: a dimerising Fc or GST)
chain: ILEGPYPVEEIRLPRAGGPLGLSIVGGSDHSSHPFGVQEPGVFISKVLPRGLAARSGLRVGDRILAVNGQDVRDATHQEAVSALLRPCLELSLLVRRDPAEFIVTD
Turning to B18, binding in [3] was put at a Kd of 0.35 µM.

For the origin of these results see patent US20050282743A1 (ARBOR VITA, published 2005).
